Laboratory results published in patent US20230085357A1, “INJECTABLE HIGH CONCENTRATION PHARMACEUTICAL FORMULATIONS AND METHODS OF MANUFACTURING AND USE THEREOF” (Xeris Pharmaceuticals, Inc., priority 2021, published 2023).

Assays:
[1] = IV product; cited from earlier work
[2] = Bevacizumab pharmacokinetics, plasma concentration after single 100 mg dose IV or SC; assay type: in vivo; details: female Gottingen minipigs, mean
[3] = single dose, plasma, uncorrected

Substance	average clearance rate [1]	half-life [1]	AUC336/D ([2]; dose-corrected)	AUClast/D ([2]; dose-corrected)	AUC∞/D ([2]; dose-corrected)	Cmax/D ([2]; dose-corrected)	T1/2 ([2]; single dose, plasma)	AUC336 [2, 3]	AUClast [2, 3]	AUC∞ [2, 3]	Cmax [2, 3]
bevacizumab: human monoclonal antibody that binds Vascular Endothelial Growth Factor (VEGF), commercialized under the AVASTIN® brand	about 0.262 L/day	about 20 days									
Avastin ®			3084 kg·µg·h/mL/mg	5215 kg·µg·h/mL/mg	5357 kg·µg·h/mL/mg	24.7 kg·µg/mL/mg	227 h	28380 µg·h/mL	47990 µg·h/mL	49271 µg·h/mL	230 µg/mL
